Drawing on paper PMC5428437, “The function of two P450s, CYP9M10 and CYP6AA7, in the permethrin resistance of Culex quinquefasciatus” (Scientific Reports, 2017), this text covers Km for two proteins.

Substrate in data set [1]: CCOc1ccc2ccc(=O)oc2c1
Nature of the data set: 7-ethoxycoumarin O-deethylation (ECOD), fluorescence of 7-hydroxycoumarin, Sf9 microsomes. Type of data set: biochemical, Culex quinquefasciatus. The conditions noted are these: 1 mM NADPH, 0.1 M sodium phosphate pH 7.5, 30 °C, 30 min, substrate 0.1 to 1.2 mM, apparent. The source says: 7-ethoxycoumarin O-deethylation (ECOD), fluorescence of 7-hydroxycoumarin, Sf9 microsomes on CYP9M10/CPR

Substrate in data set [2]: CCOc1ccc2ccc(=O)oc2c1
The description is as above. Particulars: 1 mM NADPH, 0.1 M sodium phosphate pH 7.5, 30 °C, 30 min, substrate 0.1 to 1.2 mM, apparent. Type of data set: biochemical, Culex quinquefasciatus. From the text:
7-ethoxycoumarin O-deethylation (ECOD), fluorescence of 7-hydroxycoumarin, Sf9 microsomes on CYP6AA7/CPR
The source holds these as a separate data set.

B1: CYP9M10/CPR (Culex quinquefasciatus) (protein)
chain: MTSLEWLLLLVPTAIYLFYRWSVATFDYFEKRGVPFVKPVPLLGGMWNFFSGKMHMVDAGSLGYEMFPDSRFSGFFAFRKPGYLIHDPELVKQITIKDFDHFADHTNVVPIEADPVLGRALFFTEGTRWKHGRSGLSPAFTGRKMRNMFALLSNYMEGAMGRLVDDARRDGGLELEMRDLFQKLGNDVTTSLSFGVEIDSVHNPNNEFMRRGKELIATDGIQGLKFLLLTVLPKSFFRTLRIRIIPKEATDFYVDVISKTIKQREEHNIVRPDFIHLLVQGRKNELKMEQADDQLKSAGFSTVEEHLQSSTENSQYSDLDITAAAASFFFGGLETTTTVICFALYEMSQNPNVKQKLQAEIDQVKEQLSTTDSKLSYEVLQNMKYLDMVVSETLRRWAPLGLTNRACTKPYTIEDNNGTKVSIQVGDLIQIPIQSIHRDHRFYPDPYKFDPERFSEENKANINRSAFLPFGSGPRNCIGSRLALMQTKCFLYYTLANFELELCPKTDVPIKLNKRSVSLDTLSGFWFRMVPRGEMKK
notes: complete reading frames cloned from 4th instar larvae cDNA; microsomal protein, not purified; with NADPH--cytochrome P450 reductase
As for B1, the Km in data set [1] is recorded as 779.3 ± 16.0 µM.

B2: CYP6AA7/CPR (Culex quinquefasciatus) (protein)
chain: MSLLNTLLYLVLPVAALIYLFVRRKLSYWADRNVPHAPGSFPMGSLQGMGTKYHMSHILERIYQQFKNESPAVGFYLTMKPTLMVTDLELVKQVLVKDFNSFRDRGVYYNEKDDPVSAHLFAIDGEKWRFLRNKLSPTFTSGKIKYMFNTMQEIGDEFVECFGRYEEREEAVDVKTLCGWFTCDVIGSCAFGLNCNSLKNEESELITIANRLFKPSPIDAMWQFFFMSFRDLSAKLRLLILPRDIAKYFMTLIPETVTYREQNNVTRPDFLQLLIQLKNKGTVDGAEQESSGETLTMNQVVAQSFVFMLGGFETTSTALTFALFELANNPEIQEKVRVEVSSVLARHDGKITYDALKEMTYLEQVVNETLRMYPPVPFVARNSNHSYHITHPDVTLDADTMVLVPVYAIHYDPDIYQNPTRFDPDRFTPEATQARHTHAFLPFGDGPRNCIGLRFALLEVKFGIAVLLSKFRFSPSAKMILPLELDISAPMMAAKGGVWLDVNKINSKE
notes: as for B1
In the case of B2, the Km in data set [2] is listed as 564.8 ± 14.7 µM.
